4 molecules from US20170173107A1 (University of Pennsylvania, published 2017) can be followed below.

The target of assay [1] is T1, C3b (biotinylated, captured on a streptavidin sensor chip) (UniProt P01024 749-1663, biotinylated (site not stated)).
T1 construct: range 727-1641; also called site-specifically immobilized C3b
The assay can be described thus: SPR (Biacore 3000), single-cycle kinetics, peptide over captured biotinylated C3b, 1:1 model, 25 °C. As for the experimental part:
1.1 Interaction of Compstatin analogues with C3b. […] Individual injections within a cycle were 2 min long with a 5-min dissociation between injections. After the end of the last injection, a 40-min dissociation time was allowed. […] The kinetic evaluation was performed in BiaEvaluation using a single cycle kinetic template (kindly provided by GE Healthcare) by globally fitting each data set to a 1:1 Langmuir binding model to achieve association and dissociation rates (kₐ and kd, respectively); the equilibrium dissociation constant (KD) was calculated from the equation KD=kd/kₐ (FIG. 1). Each assay was performed at least twice.
^aSingle-cycle kinetic analysis of compstatin conjugates was performed. Sets of five increasing concentrations were consecutively injected over a C3b surface (3000-5000 RU density) in a single cycle. The processed signals were fitted to a 1:1 binding model.
For orientation: In SPR one partner is held on a chip, and binding of the other changes the refractive index at the surface.

Another assay deals with complement component C3 (human, UniProt P01024 672-1663). The assay can be described thus: cell-based or functional assay.
The next assay addresses baboon albumin (baboon). Put plainly: SPR, albumin (6.3-100 µM) over immobilized biotinylated ABM2-Cp20; apparent affinity (KD app) from steady state, single-binding-site model. The source says:
1.2 Interaction of ABM-Compstatin conjugates with albumin.
To confirm the albumin-directed activity of the ABM-compstatin conjugates and further explore their simultaneous binding to C3 and albumin, we performed additional SPR binding studies. […] The biotinylated peptides were immobilized on a streptavidin-coated SPR sensor chip, and the interactions with albumins from different species (human, baboon, bovine, rabbit and mouse) were characterized (Table 3; FIG. 2).

Positions of bridges follow the written chain, without caps; N, C: chain ends. Non-standard residues stand in square brackets, D forms with d. *: point of attachment. ABM1 = 3-(naphthalene-2-sulfonamido)propanoic acid albumin-binding tag, amide-linked to N-terminus, O=C(CCNS(=O)(=O)c1ccc2ccccc2c1)*; ABM2 = diphenyl-cyclohexanol phosphate ester hexanoic acid tag; Trp(1-Me) = Cn1cc(C[C@H](N)C(=O)O)c2ccccc21; NMeI = CC[C@H](C)[C@H](NC)C(=O)O; Sar = CNCC(=O)O

complement component C3, sequence (P01024 23-665 P314L limits assumed, chain 1 of 2): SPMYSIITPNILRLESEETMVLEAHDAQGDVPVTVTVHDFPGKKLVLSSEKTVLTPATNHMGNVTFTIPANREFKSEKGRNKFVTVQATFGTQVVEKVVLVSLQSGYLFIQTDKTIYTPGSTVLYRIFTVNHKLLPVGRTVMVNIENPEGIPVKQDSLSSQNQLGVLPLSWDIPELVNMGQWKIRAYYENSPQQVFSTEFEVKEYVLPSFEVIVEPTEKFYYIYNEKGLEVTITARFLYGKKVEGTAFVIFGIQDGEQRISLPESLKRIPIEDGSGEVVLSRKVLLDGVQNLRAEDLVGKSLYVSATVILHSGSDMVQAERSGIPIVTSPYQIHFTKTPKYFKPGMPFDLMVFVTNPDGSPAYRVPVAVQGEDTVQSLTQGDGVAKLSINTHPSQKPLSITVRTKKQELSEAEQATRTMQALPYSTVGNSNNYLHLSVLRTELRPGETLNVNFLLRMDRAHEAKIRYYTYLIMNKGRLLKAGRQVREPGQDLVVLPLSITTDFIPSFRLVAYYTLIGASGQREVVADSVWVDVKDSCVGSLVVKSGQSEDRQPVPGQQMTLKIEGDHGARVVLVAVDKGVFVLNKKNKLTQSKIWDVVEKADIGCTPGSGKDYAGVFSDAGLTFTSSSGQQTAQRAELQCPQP
complement component C3, sequence (P01024 672-1663 limits assumed, chain 2 of 2): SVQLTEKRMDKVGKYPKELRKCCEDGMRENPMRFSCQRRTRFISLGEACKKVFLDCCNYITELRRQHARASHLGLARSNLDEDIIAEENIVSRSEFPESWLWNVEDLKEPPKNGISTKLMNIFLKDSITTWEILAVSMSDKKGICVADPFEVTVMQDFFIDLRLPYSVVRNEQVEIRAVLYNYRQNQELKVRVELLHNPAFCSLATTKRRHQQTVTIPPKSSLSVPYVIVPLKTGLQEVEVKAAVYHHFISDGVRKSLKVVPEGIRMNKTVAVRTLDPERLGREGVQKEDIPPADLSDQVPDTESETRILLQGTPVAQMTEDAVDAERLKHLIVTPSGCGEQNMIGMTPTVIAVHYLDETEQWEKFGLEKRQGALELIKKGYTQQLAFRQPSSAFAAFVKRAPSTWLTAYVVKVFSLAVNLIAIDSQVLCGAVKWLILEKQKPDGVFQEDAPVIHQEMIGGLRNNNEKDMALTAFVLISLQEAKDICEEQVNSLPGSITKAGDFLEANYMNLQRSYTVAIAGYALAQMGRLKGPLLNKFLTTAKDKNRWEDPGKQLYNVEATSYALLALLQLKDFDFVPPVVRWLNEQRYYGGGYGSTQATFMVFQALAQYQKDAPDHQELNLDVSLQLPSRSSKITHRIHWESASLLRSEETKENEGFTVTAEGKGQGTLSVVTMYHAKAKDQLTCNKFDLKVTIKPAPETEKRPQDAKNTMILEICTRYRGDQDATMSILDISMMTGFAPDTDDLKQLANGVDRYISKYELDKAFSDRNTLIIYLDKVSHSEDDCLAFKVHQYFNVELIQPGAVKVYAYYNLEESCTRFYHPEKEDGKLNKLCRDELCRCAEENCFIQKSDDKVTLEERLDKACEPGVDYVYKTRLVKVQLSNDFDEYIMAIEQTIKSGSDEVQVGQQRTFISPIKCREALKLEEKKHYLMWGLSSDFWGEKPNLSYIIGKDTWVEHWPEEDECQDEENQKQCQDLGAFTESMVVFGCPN
T1 sequence (P01024 23-665 P314L limits assumed, chain 1 of 2): as the sequence (P01024 23-665 P314L limits assumed, chain 1 of 2) above
T1 sequence (P01024 749-1663 limits assumed, chain 2 of 2): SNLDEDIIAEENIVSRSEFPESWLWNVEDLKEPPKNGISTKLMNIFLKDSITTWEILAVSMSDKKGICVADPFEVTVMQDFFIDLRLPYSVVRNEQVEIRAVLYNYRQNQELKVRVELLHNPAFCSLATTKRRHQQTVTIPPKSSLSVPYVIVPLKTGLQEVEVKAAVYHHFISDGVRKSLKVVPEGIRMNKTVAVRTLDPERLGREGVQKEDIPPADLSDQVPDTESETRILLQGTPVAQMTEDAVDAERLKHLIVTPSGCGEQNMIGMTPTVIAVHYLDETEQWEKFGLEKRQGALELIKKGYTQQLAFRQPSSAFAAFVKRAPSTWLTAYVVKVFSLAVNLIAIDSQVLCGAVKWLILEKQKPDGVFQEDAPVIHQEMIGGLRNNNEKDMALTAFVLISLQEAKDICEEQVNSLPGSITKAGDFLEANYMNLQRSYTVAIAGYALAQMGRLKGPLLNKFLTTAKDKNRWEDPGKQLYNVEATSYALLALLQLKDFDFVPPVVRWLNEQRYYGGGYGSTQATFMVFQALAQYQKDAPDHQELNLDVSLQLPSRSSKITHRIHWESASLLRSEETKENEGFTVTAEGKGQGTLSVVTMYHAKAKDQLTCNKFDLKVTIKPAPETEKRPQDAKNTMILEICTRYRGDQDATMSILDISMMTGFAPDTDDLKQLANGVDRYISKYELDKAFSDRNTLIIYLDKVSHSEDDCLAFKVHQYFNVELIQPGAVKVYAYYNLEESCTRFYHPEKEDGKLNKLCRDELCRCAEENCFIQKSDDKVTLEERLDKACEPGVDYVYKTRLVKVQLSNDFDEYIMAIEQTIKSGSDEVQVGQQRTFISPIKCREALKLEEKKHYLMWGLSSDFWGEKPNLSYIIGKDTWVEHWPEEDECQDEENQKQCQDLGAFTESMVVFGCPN

B1: Cp20 (Ac-Ile-[Cys-Val-Trp(Me)-Gln-Asp-Trp-Sar-Ala-His-Arg-Cys]-mIle-NH2) (peptide)
peptide: Ac-ICV[Trp(1-Me)]QDW[Sar]AHRC[NMeI]-NH2
modifications: disulfide 2-12
SMILES: CC[C@H](C)[C@H](NC(C)=O)C(=O)N[C@H]1CSSC[C@@H](C(=O)N(C)[C@H](C(N)=O)[C@@H](C)CC)NC(=O)[C@H](CCCNC(=N)N)NC(=O)[C@H](Cc2c[nH]cn2)NC(=O)[C@H](C)NC(=O)CN(C)C(=O)[C@H](Cc2c[nH]c3ccccc23)NC(=O)[C@H](CC(=O)O)NC(=O)[C@H](CCC(N)=O)NC(=O)[C@H](Cc2cn(C)c3ccccc23)NC(=O)[C@H](C(C)C)NC1=O
notes: Synthetic cyclic 13-residue peptide; also called compstatin analog Cp20; C20
In assay [1], B1 came in with a Kd of 2.9 nM, an off-rate (koff) of 0.0067 s⁻¹ and a kon of 2.3e+06 M⁻¹ s⁻¹. Moreover, the “IC50 (µM), inhibition of immune complex-induced (classical pathway) complement activation in human plasma, ELISA” value (“IC50 (µM), inhibition” below) with complement component C3 amounted to 0.26 µM.

B2: ABM2-Cp20 (ABM2-Ile-[Cys-Val-Trp(Me)-Gln-Asp-Trp-Sar-Ala-His-Arg-Cys]-mIle-NH2) (peptide)
peptide: ABM2-ICVWQDW[Sar]AHRC[NMeI]-NH2
modifications: disulfide 2-12; not fully specified (residue 4); printed as ABM2-Ile-[Cys-Val-Trp(Me)-Gln-Asp-Trp-Sar-Ala-His-Arg-Cys]-mIle-NH2
notes: also called ABM2-Compstatin 20
Regarding B2, the “IC50 (µM), inhibition” value with complement component C3 amounted to 0.17 µM.

B3: ABM1-Cp20 (peptide)
peptide: ABM1-ICV[Trp(1-Me)]QDW[Sar]AHRC[NMeI]-NH2
modifications: disulfide 2-12
SMILES: CC[C@H](C)[C@H](NC(=O)CCNS(=O)(=O)c1ccc2ccccc2c1)C(=O)N[C@H]1CSSC[C@@H](C(=O)N(C)[C@H](C(N)=O)[C@@H](C)CC)NC(=O)[C@H](CCCNC(=N)N)NC(=O)[C@H](Cc2c[nH]cn2)NC(=O)[C@H](C)NC(=O)CN(C)C(=O)[C@H](Cc2c[nH]c3ccccc23)NC(=O)[C@H](CC(=O)O)NC(=O)[C@H](CCC(N)=O)NC(=O)[C@H](Cc2cn(C)c3ccccc23)NC(=O)[C@H](C(C)C)NC1=O
notes: also called ABMT-Cp20 (misprint of ABM1 in the text)
Take B3: in the assay with complement component C3, the “IC50 (µM), inhibition” value was found to be 0.2 µM.

B4: ABM2-Cp20-miniPEG-Lys(biotin) (peptide)
peptide: ICVWQDWGAHRCIK
modifications: not fully specified; ABM2 amide-linked to the N-terminus; Trp(Me) at position 4; Sar at position 8; mIle at position 13; disulfide Cys2-Cys12; miniPEG (AEEEA) spacer between mIle13 and the C-terminal Lys; biotin on the Lys side chain; made on Rink amide resin (C-terminal amide)
notes: Captured on streptavidin-coated CM5 chip at about 100 RU; also called biotinylated ABM2-Cp20; immobilized ABM2-Cp20
B4: the Kd with baboon albumin amounted to 106000 nM.

One may read the koff as the rate constant with which the complex falls apart. For orientation: kon means the rate constant with which the complex forms.
